Measurements: patent publication US20220204609A1 (SHANDONG BOAN BIOTECHNOLOGY, published 2022)
Where a chain is given by its changes, count along the chain named. Where two headings read alike, the source gives them in different places.

T1: Human CD32a(H) (Sino Biological, 10374-H27H1-B) (human, UniProt P12318 34-218)
T1 construct: Loaded on streptavidin biosensors
T1 sequence (looked up): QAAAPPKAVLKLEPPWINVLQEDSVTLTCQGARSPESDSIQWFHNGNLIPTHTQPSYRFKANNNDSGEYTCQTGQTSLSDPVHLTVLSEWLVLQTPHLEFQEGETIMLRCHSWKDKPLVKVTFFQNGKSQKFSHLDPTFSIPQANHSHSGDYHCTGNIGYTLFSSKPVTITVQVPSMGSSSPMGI

T2: Human CD32b (human, UniProt P31994 43-217, limits assumed)
T2 sequence (looked up): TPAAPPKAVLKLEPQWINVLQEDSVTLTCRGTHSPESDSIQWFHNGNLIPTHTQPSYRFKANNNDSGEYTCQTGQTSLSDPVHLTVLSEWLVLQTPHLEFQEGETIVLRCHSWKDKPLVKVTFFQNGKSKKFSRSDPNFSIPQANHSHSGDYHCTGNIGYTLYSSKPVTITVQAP

B1: CLD393-C1002-IgG1 (antibody, V domains shown)
VH: QVQLVESGGGVVQPGRSLRLSCAASGFTFSSHDMHWVRQAPGKGLEWVADISDDGSNKNYADSVKGRFTISRDNSKNTLYLQMNSLRAEDAAVYYCAREGLRWFGEFYYSYGMDVWGQGTTVTVSS
VL: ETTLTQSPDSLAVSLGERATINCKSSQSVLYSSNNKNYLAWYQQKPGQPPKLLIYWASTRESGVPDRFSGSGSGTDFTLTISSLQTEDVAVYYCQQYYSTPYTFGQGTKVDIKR
notes: Complete IgG1 made in HEK293 cells; also called CLD387-C1002-IgG1
B2: CLD393-C1024-IgG1 (antibody, V domains shown)
VH: B1 VH with Q1E, E6Q, H32Y
VL: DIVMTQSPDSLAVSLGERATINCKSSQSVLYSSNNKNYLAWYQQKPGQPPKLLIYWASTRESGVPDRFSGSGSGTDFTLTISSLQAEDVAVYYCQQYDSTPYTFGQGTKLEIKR
notes: Complete IgG1 made in HEK293 cells; also called CLD383-C1024-IgG1
B3: CLDQMix-CA808.1-IgG1-VLPLL (antibody)
heavy: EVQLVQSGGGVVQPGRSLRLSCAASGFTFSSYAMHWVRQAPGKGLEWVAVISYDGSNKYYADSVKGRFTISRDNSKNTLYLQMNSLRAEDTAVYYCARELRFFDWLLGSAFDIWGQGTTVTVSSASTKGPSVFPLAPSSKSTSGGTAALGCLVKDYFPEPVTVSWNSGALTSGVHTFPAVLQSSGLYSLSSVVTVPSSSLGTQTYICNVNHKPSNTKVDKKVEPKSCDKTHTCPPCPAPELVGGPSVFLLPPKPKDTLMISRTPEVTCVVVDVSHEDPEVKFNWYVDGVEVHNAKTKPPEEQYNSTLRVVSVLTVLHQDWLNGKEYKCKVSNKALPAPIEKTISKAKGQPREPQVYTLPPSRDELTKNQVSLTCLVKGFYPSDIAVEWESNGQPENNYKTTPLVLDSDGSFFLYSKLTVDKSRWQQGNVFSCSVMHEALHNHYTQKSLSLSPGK
light: DIVMTQSPSSLSASVGDRVTITCRASQGIRNDLGWYQQKPGKAPKLLIYAASSLQSGVPSRFSGSGSGTDFTLTISSLQPEDFATYYCLQDYNYPRTFGQGTKVEIKRTVAAPSVFIFPPSDEQLKSGTASVVCLLNNFYPREAKVQWKVDNALQSGNSQESVTEQDSKDSTYSLSSTLTLSKADYEKHKVYACEVTHQGLSSPVTKSFNRGEC
B4: CLDQMIX-CA808.1-IgG1 (antibody)
heavy: not shown
light: B3 light
notes: Complete IgG1 made in HEK293 cells from the scFv clone; also called CLDMIX-CA808.1-IgG1
B5: IMAB362 (antibody, human IgG1, kappa, V domains shown)
VH: QVQLQQPGAELVRPGASVKLSCKASGYTFTSYWINWVKQRPGQGLEWIGNIYPSDSYTNYNQKFKDKATLTVDKSSSTAYMQLSSPTSEDSAVYYCTRSWRGNSFDYWGQGTTLTVSS
VL: DIVMTQSPSSLTVTAGEKVTMSCKSSQSLLNSGNQKNYLTWYQQKPGQPPKLLIYWASTRESGVPDRFTGSGSGTDFTLTISSVQAEDLAVYYCQNDYSYPFTFGSGTKLEIKR

Assays:
Claudin18.2 on cells [1] = target: T3, Claudin18.2 on cells (human, UniProt P56856-2 1-261); assay: cell-based or functional assay
Claudin18.2 on cells [2] = target: T3, Claudin18.2 on cells; assay: flow cytometry on 293T-Claudin18.2 cells, antibody at 0.75 µg/mL
Claudin18.2 on cells [3] = target: T3, Claudin18.2 on cells; assay: flow cytometry on NUGC4 cells, antibody at 3 µg/mL
Claudin18.2 on cells [4] = target: T3, Claudin18.2 on cells; assay: flow cytometry on 293T-Claudin18.2 cells, antibody at 1.5 µg/mL
Claudin18.2 on cells [5] = target: T3, Claudin18.2 on cells; assay: flow cytometry on 293T-Claudin18.2 cells, antibody at 0.375 µg/mL
Claudin18.2 on cells [6] = target: T3, Claudin18.2 on cells; assay: flow cytometry on NUGC4 cells, antibody at 0.75 µg/mL
Claudin18.2 on cells [7] = target: T3, Claudin18.2 on cells; assay: flow cytometry on 293T-Claudin18.2 cells, antibody at 3 µg/mL
Claudin18.2 on cells [8] = target: T3, Claudin18.2 on cells; assay: flow cytometry on NUGC4 cells, antibody at 1.5 µg/mL
[9] = target: T1, Human CD32a(H) (Sino Biological, …); assay: BLI (Octet RED 96), Human CD32a(H) on streptavidin biosensor, steady state analysis
Human CD32b = target: T2, Human CD32b; assay: BLI (Octet RED 96), Human CD32b on streptavidin biosensor, steady state analysis
[10] = target: T4, Human CD16a(F) (Sino Biological, 10389-H27H-B) (human, UniProt P08637 17-208); assay: BLI (Octet RED 96), Human CD16a(F) on streptavidin biosensor, 1:1 fit
T4 construct: Loaded on streptavidin biosensors
T4 sequence (P08637 17-208 limits assumed): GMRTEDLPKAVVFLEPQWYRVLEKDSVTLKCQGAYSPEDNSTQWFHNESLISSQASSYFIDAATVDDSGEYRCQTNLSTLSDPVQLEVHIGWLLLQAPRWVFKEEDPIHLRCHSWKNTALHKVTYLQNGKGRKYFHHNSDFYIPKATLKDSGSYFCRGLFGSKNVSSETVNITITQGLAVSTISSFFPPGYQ

[11] = target: T5, Human CD16a(V) (Sino Biological, 10389-H27H1-B) (human, UniProt P08637 17-208); assay: BLI; KD of CLDQMIX-CA808.1-IgG1 against KD of CLDQMIX-CA808.1-IgG1 VLPLL
T5 construct: Loaded on streptavidin biosensors
T5 sequence (P08637 17-208 F176V limits assumed): as the sequence (P08637 17-208 limits assumed) above, with F160V counted along it

[12] = target: T4, Human CD16a(F) (Sino Biological, …); assay: as above
[13] = target: T6, Human FcRn (ACROBiosystems, FCM-H82W4) (human, UniProt P55899 24-297; P61769 21-119); assay: as above
T6 construct: Loaded on streptavidin biosensors
T6 sequence (P55899 24-297 limits assumed, chain 1 of 2): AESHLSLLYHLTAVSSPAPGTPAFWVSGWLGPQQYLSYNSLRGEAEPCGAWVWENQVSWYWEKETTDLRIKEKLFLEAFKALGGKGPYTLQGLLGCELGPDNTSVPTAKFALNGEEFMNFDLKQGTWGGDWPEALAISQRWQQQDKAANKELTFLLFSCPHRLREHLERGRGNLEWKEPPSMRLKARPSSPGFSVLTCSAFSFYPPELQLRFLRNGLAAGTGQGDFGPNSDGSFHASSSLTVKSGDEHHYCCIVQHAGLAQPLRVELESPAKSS
T6 sequence (P61769 21-119 limits assumed, chain 2 of 2): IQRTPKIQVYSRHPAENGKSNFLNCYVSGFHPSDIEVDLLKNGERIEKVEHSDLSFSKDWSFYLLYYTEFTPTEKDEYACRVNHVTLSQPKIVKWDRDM

[14] = target: T1, Human CD32a(H) (Sino Biological, …); assay: as above
[15] = target: T6, Human FcRn (ACROBiosystems, FCM-H82W4); assay: BLI (Octet RED 96), Human FcRn on streptavidin biosensor, steady state analysis
[16] = target: T5, Human CD16a(V) (Sino Biological, …); assay: BLI (Octet RED 96), Human CD16a(V) on streptavidin biosensor, 1:1 fit
Claudin18.2 on cells [17] = target: T3, Claudin18.2 on cells; assay: flow cytometry on 293T-Claudin18.2 cells, antibody at 0.75 µg/mL; remark: listed apart in the source
Claudin18.1 on cells [18] = target: T7, Claudin18.1 on cells (human, UniProt P56856 1-261); assay: flow cytometry on 293T-Claudin18.1 cells, antibody at 0.75 µg/mL
T7 construct: whole, on cells

Claudin18.2 on cells [19] = target: T3, Claudin18.2 on cells; assay: flow cytometry on 293T-Claudin18.2 cells, antibody at 1.5 µg/mL; remark: listed apart in the source
Claudin18.1 on cells [20] = target: T7, Claudin18.1 on cells; assay: flow cytometry on 293T-Claudin18.1 cells, antibody at 1.5 µg/mL
Claudin18.2 on cells [21] = target: T3, Claudin18.2 on cells; assay: cell-based or functional assay; remark: listed apart in the source
Claudin18.1 on cells [22] = target: T7, Claudin18.1 on cells; assay: flow cytometry on 293T-Claudin18.1 cells, antibody at 3 µg/mL
Claudin18.2 on cells [23] = target: T3, Claudin18.2 on cells; assay: flow cytometry on 293T-Claudin18.2 cells, antibody at 0.375 µg/mL; remark: listed apart in the source
Claudin18.2 on cells [24] = target: T3, Claudin18.2 on cells; assay: flow cytometry on 293T-Claudin18.2 cells, antibody at 3 µg/mL; remark: listed apart in the source
Claudin18.2 on cells [25] = target: T3, Claudin18.2 on cells; assay: cell-based or functional assay; remark: listed apart in the source
Claudin18.1 on cells [26] = target: T7, Claudin18.1 on cells; assay: flow cytometry on 293T-Claudin18.1 cells, antibody at 0.375 µg/mL
Claudin18.2 on cells [27] = target: T3, Claudin18.2 on cells; assay: flow cytometry on NUGC4 cells, antibody at 3 µg/mL; remark: listed apart in the source
Claudin18.2 on cells [28] = target: T3, Claudin18.2 on cells; assay: flow cytometry on NUGC4 cells, antibody at 1.5 µg/mL; remark: listed apart in the source
Claudin18.2 on cells [29] = target: T3, Claudin18.2 on cells; assay: flow cytometry on NUGC4 cells, antibody at 0.75 µg/mL; remark: listed apart in the source
Claudin18.2 on cells [30] = target: T3, Claudin18.2 on cells; assay: cell-based or functional assay; remark: listed apart in the source

Binder	ADCC inhibition rate, %, antibody 0.5 µg/mL, 293T-Claudin18.2 target cells, PBMC effectors, LDH (Claudin18.2 on cells [1]) [%]	ADCC inhibition rate, %, antibody 5 µg/mL, 293T-Claudin18.2 target cells, PBMC effectors, LDH (Claudin18.2 on cells [1]) [%]	ADCC inhibition rate, %, antibody 50 µg/mL, 293T-Claudin18.2 target cells, PBMC effectors, LDH (Claudin18.2 on cells [1]) [%]	mean fluorescence intensity (Claudin18.2 on cells [2])	mean fluorescence intensity (Claudin18.2 on cells [3])	mean fluorescence intensity (Claudin18.2 on cells [4])	mean fluorescence intensity (Claudin18.2 on cells [5])	mean fluorescence intensity (Claudin18.2 on cells [6])	mean fluorescence intensity (Claudin18.2 on cells [7])	mean fluorescence intensity (Claudin18.2 on cells [8])	Kd [9] [nM]	Kd (Human CD32b) [nM]	Kd [10] [nM]	Kd [15] [nM]	Kd [16] [nM]	mean fluorescence intensity (Claudin18.2 on cells [17])	mean fluorescence intensity (Claudin18.2 on cells [19])	ADCC EC50 (µg/mL), NUGC4 target cells, Jurkat reporter effector cells, Bio-Glo (Claudin18.2 on cells [21]) [µg/mL]	mean fluorescence intensity (Claudin18.2 on cells [23])	mean fluorescence intensity (Claudin18.2 on cells [24])	also measured
B1	22	49	64	852000	5170	1.16e+06	406000	4950	1.33e+06	4890	–	–	–	–	–	–	–	–	–	–	–
B2	15	47	48	787000	6140	1.03e+06	308000	5210	1.37e+06	5640	–	–	–	–	–	–	–	–	–	–	–
B3	–	–	–	–	–	–	–	–	–	–	300	3000	119	5.27	54.1	–	–	–	–	–	Ratio of KD [11]: 1.98; Ratio of KD [12]: 4.75; Ratio of KD [13]: 1.31; Ratio of KD [14]: 1.37
B4	–	–	–	–	185000	–	–	75600	–	138000	410	3200	566	6.93	107	753000	1.2e+06	1.26	535000	1.38e+06	mean fluorescence intensity (Claudin18.1 on cells [18]): 29400; mean fluorescence intensity (Claudin18.1 on cells [20]): 28900; mean fluorescence intensity (Claudin18.1 on cells [22]): 47500; ADCC inhibition rate, %, antibody 0.1 µg/mL, 293T-Claudin18.2 target cells, PBMC effectors, LDH (Claudin18.2 on cells [25]): 39.4%; ADCC inhibition rate, %, antibody 1 µg/mL, 293T-Claudin18.2 target cells, PBMC effectors, LDH (Claudin18.2 on cells [25]): 63.6%; ADCC inhibition rate, %, antibody 10 µg/mL, 293T-Claudin18.2 target cells, PBMC effectors, LDH (Claudin18.2 on cells [25]): 57.4%; mean fluorescence intensity (Claudin18.1 on cells [26]): 26000
B5	18	45	49	650000	117000	878000	407000	55400	–	93500	–	–	–	–	–	689000	849000	2.15	498000	902000	mean fluorescence intensity (Claudin18.2 on cells [27]): 131000; mean fluorescence intensity (Claudin18.2 on cells [28]): 97100; ADCC inhibition rate, %, antibody 0.1 µg/mL, 293T-Claudin18.2 target cells, PBMC effectors, LDH (Claudin18.2 on cells [25]): 20.8%; ADCC inhibition rate, %, antibody 1 µg/mL, 293T-Claudin18.2 target cells, PBMC effectors, LDH (Claudin18.2 on cells [25]): 41.4%; ADCC inhibition rate, %, antibody 10 µg/mL, 293T-Claudin18.2 target cells, PBMC effectors, LDH (Claudin18.2 on cells [25]): 60.6%; mean fluorescence intensity (Claudin18.2 on cells [29]): 69600; ADCC EC50 (µg/mL), NUGC4 target cells, Jurkat reporter effector cells, Bio-Glo (Claudin18.2 on cells [30]): 2.56 µg/mL
